Molecular target: T1, flag–Lte1 (budding yeast, UniProt P07866 1-1435)
T1 sequence (looked up): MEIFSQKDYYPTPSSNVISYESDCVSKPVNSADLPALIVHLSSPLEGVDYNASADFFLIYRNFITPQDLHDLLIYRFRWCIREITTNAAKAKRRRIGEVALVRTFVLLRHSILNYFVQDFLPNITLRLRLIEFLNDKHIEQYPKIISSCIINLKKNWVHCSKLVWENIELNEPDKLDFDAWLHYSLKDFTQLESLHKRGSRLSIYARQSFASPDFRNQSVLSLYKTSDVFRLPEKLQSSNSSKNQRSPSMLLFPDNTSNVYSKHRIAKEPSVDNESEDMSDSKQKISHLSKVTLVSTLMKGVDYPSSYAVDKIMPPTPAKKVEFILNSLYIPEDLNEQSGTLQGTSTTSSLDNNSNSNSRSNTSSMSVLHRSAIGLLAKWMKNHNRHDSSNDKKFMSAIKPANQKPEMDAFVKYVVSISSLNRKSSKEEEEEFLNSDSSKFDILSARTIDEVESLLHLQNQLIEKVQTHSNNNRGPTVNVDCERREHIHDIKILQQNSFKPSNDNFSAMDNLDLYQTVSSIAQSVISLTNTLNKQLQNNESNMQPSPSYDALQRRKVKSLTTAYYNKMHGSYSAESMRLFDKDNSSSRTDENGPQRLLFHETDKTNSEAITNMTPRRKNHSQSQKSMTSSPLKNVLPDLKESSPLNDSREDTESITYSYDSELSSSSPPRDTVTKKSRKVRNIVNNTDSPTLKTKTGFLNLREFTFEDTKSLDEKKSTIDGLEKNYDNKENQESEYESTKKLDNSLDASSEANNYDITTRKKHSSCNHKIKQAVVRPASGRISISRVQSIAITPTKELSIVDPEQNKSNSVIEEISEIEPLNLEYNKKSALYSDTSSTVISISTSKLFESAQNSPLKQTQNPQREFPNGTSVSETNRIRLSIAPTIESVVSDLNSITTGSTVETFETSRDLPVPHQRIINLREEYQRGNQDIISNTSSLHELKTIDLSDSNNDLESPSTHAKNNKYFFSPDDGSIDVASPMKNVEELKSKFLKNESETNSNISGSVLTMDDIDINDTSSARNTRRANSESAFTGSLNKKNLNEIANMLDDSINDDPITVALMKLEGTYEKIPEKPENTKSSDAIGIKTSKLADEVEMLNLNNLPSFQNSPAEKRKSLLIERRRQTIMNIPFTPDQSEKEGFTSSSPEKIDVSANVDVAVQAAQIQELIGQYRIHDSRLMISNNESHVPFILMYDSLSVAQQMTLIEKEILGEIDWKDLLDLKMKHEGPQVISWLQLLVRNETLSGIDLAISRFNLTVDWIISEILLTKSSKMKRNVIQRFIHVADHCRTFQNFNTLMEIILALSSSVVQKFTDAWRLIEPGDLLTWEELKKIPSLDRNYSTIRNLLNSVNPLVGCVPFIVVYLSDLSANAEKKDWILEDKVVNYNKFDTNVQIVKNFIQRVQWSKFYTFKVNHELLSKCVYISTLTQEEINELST
Assay: pull-down

B1: Ras2 protein purified from the insect cells (natural protein, budding yeast, UniProt P01120 1-322, looked up)
chain: MPLNKSNIREYKLVVVGGGGVGKSALTIQLTQSHFVDEYDPTIEDSYRKQVVIDDEVSILDILDTAGQEEYSAMREQYMRNGEGFLLVYSITSKSSLDELMTYYQQILRVKDTDYVPIVVVGNKSDLENEKQVSYQDGLNMAKQMNAPFLETSAKQAINVEEAFYTLARLVRDEGGKYNKTLTENDNSKQTSQDTKGSGANSVPRNSGGHRKMSNAANGKNVNSSTTVVNARNASIESKTGLAGNQATNGKTQTDRTNIDNSTGQAGQANAQSANTVNNRVNNNSKAGQVSNAKQARKQQAAPGGNTSEASKSGSGGCCIIS
binding result: binds

Source: article PMC2172978 (The Journal of Cell Biology, 2003)
